# Measurements reported in IntAct's records for PubMed 17170703.
# B1: Androgen receptor (Homo sapiens), P10275 (parent)
# chain: MEVQLGLGRVYPRPPSKTYRGAFQNLFQSVREVIQNPGPRHPEAASAAPPGASLLLLQQQQQQQQQQQQQQQQQQQQQQQETSPRQQQQQQGEDGSPQAHRRGPTGYLVLDEEQQPSQPQSALECHPERGCVPEPGAAVAASKGLPQQLPAPPDEDDSAAPSTLSLLGPTFPGLSSCSADLKDILSEASTMQLLQQQQQEAVSEGSSSGRAREASGAPTSSKDNYLGGTSTISDNAKELCKAVSVSMGLGVEALEHLSPGEQLRGDCMYAPLLGVPPAVRPTPCAPLAECKGSLLDDSAGKSTEDTAEYSPFKGGYTKGLEGESLGCSGSAAAGSSGTLELPSTLSLYKSGALDEAAAYQSRDYYNFPLALAGPPPPPPPPHPHARIKLENPLDYGSAWAAAAAQCRYGDLASLHGAGAAGPGSGSPSAAASSSWHTLFTAEEGQLYGPCGGGGGGGGGGGGGGGGGGGGGGGEAGAVAPYGYTRPPQGLAGQESDFTAPDVWYPGGMVSRVPYPSPTCVKSEMGPWMDSYSGPYGDMRLETARDHVLPIDYYFPPQKTCLICGDEASGCHYGALTCGSCKVFFKRAAEGKQKYLCASRNDCTIDKFRRKNCPSCRLRKCYEAGMTLGARKLKKLGNLKLQEEGEASSTTSPTEETTQKLTVSHIEGYECQPIFLNVLEAIEPGVVCAGHDNNQPDSFAALLSSLNELGERQLVHVVKWAKALPGFRNLHVDDQMAVIQYSWMGLMVFAMGWRSFTNVNSRMLYFAPDLVFNEYRMHKSRMYSQCVRMRHLSQEFGWLQITPQEFLCMKALLLFSIIPVDGLKNQKFFDELRMNYIKELDRIIACKRKNPTSCSRRFYQLTKLLDSVQPIARELHQFTFDLLIKSHMVSVDFPEMMAEIISVQVPKILSGKVKPIYFHTQ
# B2: Caspase-8 (Homo sapiens), Q14790 (parent)
# chain: MDFSRNLYDIGEQLDSEDLASLKFLSLDYIPQRKQEPIKDALMLFQRLQEKRMLEESNLSFLKELLFRINRLDLLITYLNTRKEEMERELQTPGRAQISAYRVMLYQISEEVSRSELRSFKFLLQEEISKCKLDDDMNLLDIFIEMEKRVILGEGKLDILKRVCAQINKSLLKIINDYEEFSKERSSSLEGSPDEFSNGEELCGVMTISDSPREQDSESQTLDKVYQMKSKPRGYCLIINNHNFAKAREKVPKLHSIRDRNGTHLDAGALTTTFEELHFEIKPHDDCTVEQIYEILKIYQLMDHSNMDCFICCILSHGDKGIIYGTDGQEAPIYELTSQFTGLKCPSLAGKPKVFFIQACQGDNYQKGIPVETDSEEQPYLEMDLSSPQTRYIPDEADFLLGMATVNNCVSYRNPAEGTWYIQSLCQSLRERCPRGDDILTILTEVNYEVSNKDDKKNMGKQMPQPTFTLRKKLVFPSD
# Variants of: B1
# Settings: with casp8_human CASP8, Q14790
row,Variant,effect of a mutation on the interaction
1,L26A;F27A,disrupting interaction

# Variants of: B2
# Settings: with andr_human AR
row,Variant,effect of a mutation on the interaction
1,I174A;I175A,disrupting interaction strength

# Variants of: B2
# Settings: with andr_human AR, P10275
row,Variant,effect of a mutation on the interaction
1,F45A,disrupting interaction strength
